{"source": "paper PMC7954794", "about": "“Protein context shapes the specificity of SH3 domain-mediated interactions in vivo” (Nature Communications, 2021)", "key": {"[1]": {"tested_on": "575 putative partners (preys) of 22 WT SH3-containing proteins", "experiment": "DHFR-PCA on solid medium, WT and SH3-deleted baits (Fig. 1B)", "assay_type": "cell-based, Saccharomyces cerevisiae", "design": "key to Score: 0: SH3-independent; 1: SH3-dependent PPIs; 2: SH3-inhibited PPIs", "settings": "for medrep (log2 median colony size normalized to plate background, PCA score): label = prey; for Ratio (SH3-deleted/WT medrep): only significant differences shown, PPIs completely lost have a ratio of 0.1, gained PPIs 2.5", "description": "To assess the requirement of SH3 domains for PPIs in vivo, we first measured binary interactions between 22 WT SH3-containing proteins (Supplementary Fig. 1A) as baits and 575 putative partners from their interconnected signaling networks using the dihydrofolate reductase protein–fragment complementation assay (DHFR-PCA) in the budding yeast Saccharomyces cerevisiae. About 33% (202/607) of the PPIs detected were described before, mostly by direct methods (Supplementary Fig. 1B, C)[11]. We repeated the experiments with baits in which the SH3s were individually replaced with a flexible linker by genome editing (SH3 domain deletion/stuffing, Fig. 1A). The stuffer DNA sequence ([…]) codes for a small flexible poly-Gly with Ser peptide ([…]) that is inspired by previous experiments[12],[13]. About a third of the SH3-containing protein interactome is qualitatively or quantitatively SH3-dependent (171 PPIs out of 607, Fig. 1B and Supplementary Fig. 1B, C). We validated the vast majority of the quantitative changes in low-throughput experiments and excluded that this is simply due to changes in protein abundance in most cases (Supplementary Fig. 1D–G). SH3-binding motifs[14] are more frequent in the SH3-dependent PPI partners when compared to sequences from random proteins, SH3-independent PPI partners or PPI partners that are stronger or gained following SH3 deletions (p values = 1.5 × 10^−17, 0.0038 and 2.1 × 10^−08, respectively; Mann–Whitney test, one-tailed, Fig. 1C). The changes we measure are therefore enriched for PPIs that depend on the direct interactions of the domains with the PPI partners.\nThe complete list of strains, primers, and gRNAs used in this study can be found in Supplementary Tables 1–3. All constructed yeast strains were validated by polymerase chain reaction (PCR) and confirmed by Sanger sequencing of the locus of interest. Bait strains for the DHFR-PCA experiments were constructed as follows. The genes of interest were fused at their genomic 3′ end by replacing the stop codon with a linker ([…]), the DHFR F[1,2] followed by a smaller linker (GGGGS), a 1× FLAG tag ([…]) and the NATMX4 resistance cassette via homologous recombination (all amplified from pAG25-DHFR[1,2]-linker-FLAG). The set of 615 prey strains (DHFR F[3] fusions in the BY4742 background) were retrieved from the Yeast Protein Interactome Collection[43] with the exception of 73 that were reconstructed (Supplementary Tables 1 and 2). Knockout strains were taken from the yeast knockout collection except for ABP1, BEM1, BZZ1, and SLA1, which were reconstructed by replacing the ORFs with the NATMX4 resistance cassette by homologous recombination in the BY4741 background.\nYeast SH3 domain genomic sequences were replaced by CRISPR–Cas9 genome editing. Each SH3 domain (as defined by the SMART database V8.0 except for Ysc84 SH3 (as defined by PROSITE), see Source Data for all SH3 sequences and Supplementary Table 1 for primers used) was specifically targeted by one gRNA[46]. Yeast competent cells were co-transformed with a pCAS plasmid (Addgene plasmid 60847[47]) expressing both the gRNA of interest and Streptococcus pyogenes Cas9[46] and a donor DNA sequence (stuffer) with 60 bp homology arms surrounding the SH3 DNA sequence. The Stuffer DNA was either PCR amplified or digested from a plasmid. The stuffer DNA sequence ([…]) codes for a small flexible linker ([…]) inspired by protein linkers used in structural biology[12],[13]. This type of linker is frequently used for fusing proteins without affecting the structure of the linked proteins.\nThe overall DHFR-PCA pipeline is based on Tarassov et al.[43] and the procedures have also been published as a visualized protocol. The screens were performed with robotically manipulated pin tools (BM5-SC1, S&P Robotics Inc.). First, the preys were cherry-picked from 96-well plates to omnitrays in a 384 format on YPD + HPH solid media. […]"}, "[2]": {"tested_on": "ABP1", "experiment": "DHFR-PCA on solid medium, bait ABP1 (Fig. 1B)", "assay_type": "cell-based, Saccharomyces cerevisiae", "settings": "bait ABP1, label = prey; 2-4 replicates", "description": "Supplement 41467_2021_21873_MOESM8_ESM.xlsx, sheet \"Fig1B\" | column: medsize; medrep; Ratio; Score"}, "[3]": {"settings": "bait SLA1-2, DHFR-PCA, Replicates 4 (2 for YCR009C, YDR388W)"}, "[4]": {"settings": "bait SLA1-3, DHFR-PCA, Replicates 4 (2 for YCR009C, YDR388W, YIL033C)"}}}
{"molecule": "YKR001C (protein, UniProt P21576 1-704, looked up) Vacuolar protein …: MDEHLISTINKLQDALAPLGGGSQSPIDLPQITVVGSQSSGKSSVLENIVGRDFLPRGTGIVTRRPLVLQLINRRPKKSEHAKVNQTANELIDLNINDDDKKKDESGKHQNEGQSEDNKEEWGEFLHLPGKKFYNFDEIRKEIVKETDKVTGANSGISSVPINLRIYSPHVLTLTLVDLPGLTKVPVGDQPPDIERQIKDMLLKYISKPNAIILSVNAANTDLANSDGLKLAREVDPEGTRTIGVLTKVDLMDQGTDVIDILAGRVIPLRYGYIPVINRGQKDIEHKKTIREALENERKFFENHPSYSSKAHYCGTPYLAKKLNSILLHHIRQTLPEIKAKIEATLKKYQNELINLGPETMDSASSVVLSMITDFSNEYAGILDGEAKELSSQELSGGARISYVFHETFKNGVDSLDPFDQIKDSDIRTIMYNSSGSAPSLFVGTEAFEVLVKQQIRRFEEPSLRLVTLVFDELVRMLKQIISQPKYSRYPALREAISNQFIQFLKDATIPTNEFVVDIIKAEQTYINTAHPDLLKGSQAMVMVEEKLHPRQVAVDPKTGKPLPTQPSSSKAPVMEEKSGFFGGFFSTKNKKKLAALESPPPVLKATGQMTERETMETEVIKLLISSYFSIVKRTIADIIPKALMLKLIVKSKTDIQKVLLEKLYGKQDIEELTKENDITIQRRKECKKMVEILRNASQIVSSV", "values": [{"measurement": "medrep (log2 median colony size normalized to plate background, PCA score)", "setting": "[1]; [3]", "value": 1.835}, {"measurement": "Score", "setting": "[1]; bait SLA1-2, label = prey", "value": 1}, {"measurement": "Ratio (SH3-deleted/WT medrep)", "setting": "[1]; bait SLA1-2, label = prey", "value": 0.1}, {"measurement": "medrep (log2 median colony size normalized to plate background, PCA score)", "setting": "[1]; [4]", "value": 1.835}, {"measurement": "Score", "setting": "[1]; bait SLA1-3, label = prey", "value": 0}, {"measurement": "medrep (log2 median colony size normalized to plate background, PCA score)", "setting": "[2]", "value": 2.787}]}
{"molecule": "YML035C (protein, UniProt P15274 1-810, looked up) AMP deaminase: MDNQATQRLNDLSLEPAPSHDEQDGSGLVIDIDQRKIGDEQAGVVVDDETPPLEQQDSHESLAADSRNANFSYHENQQLLENGTKQLALDEHDSHSAILEQPSHSTNCSSSNIAAMNKGHDSADHASQNSGGKPRTLSASAQHILPETLKSFAGAPVVNKQVRTSASYKMGMLADDASQQFLDDPSSELIDLYSKVAECRNLRAKYQTISVQNDDQNPKNKPGWVVYPPPPKPSYNSDTKTVVPVTNKPDAEVFDFTKCEIPGEDPDWEFTLNDDDSYVVHRSGKTDELIAQIPTLRDYYLDLEKMISISSDGPAKSFAYRRLQYLEARWNLYYLLNEYQETSVSKRNPHRDFYNVRKVDTHVHHSACMNQKHLLRFIKHKLRHSKDEKVIFRDGKLLTLDEVFRSLHLTGYDLSIDTLDMHAHKDTFHRFDKFNLKYNPIGESRLREIFLKTNNYIKGTYLADITKQVIFDLENSKYQNCEYRISVYGRSLDEWDKLASWVIDNKVISHNVRWLVQIPRLYDIYKKTGIVQSFQDICKNLFQPLFEVTKNPQSHPKLHVFLQRVIGFDSVDDESKVDRRFHRKYPKPSLWEAPQNPPYSYYLYYLYSNVASLNQWRAKRGFNTLVLRPHCGEAGDPEHLVSAYLLAHGISHGILLRKVPFVQYLYYLDQVGIAMSPLSNNALFLTYDKNPFPRYFKRGLNVSLSTDDPLQFSYTREPLIEEYSVAAQIYKLSNVDMCELARNSVLQSGWEAQIKKHWIGKDFDKSGVEGNDVVRTNVPDIRINYRYDTLSTELELVNHFANFKRTIEEK", "values": [{"measurement": "medrep (log2 median colony size normalized to plate background, PCA score)", "setting": "[1]; [3]", "value": 2.073}, {"measurement": "Score", "setting": "[1]; bait SLA1-2, label = prey", "value": 1}, {"measurement": "Ratio (SH3-deleted/WT medrep)", "setting": "[1]; bait SLA1-2, label = prey", "value": 0.1}, {"measurement": "medrep (log2 median colony size normalized to plate background, PCA score)", "setting": "[1]; [4]", "value": 2.073}, {"measurement": "Score", "setting": "[1]; bait SLA1-3, label = prey", "value": 0}, {"measurement": "medrep (log2 median colony size normalized to plate background, PCA score)", "setting": "[2]", "value": 3.81}]}
{"molecule": "YLR206W (protein, UniProt Q05785 1-613, looked up) Epsin-2: MSKQFVRSAKNMMKGYSSTQVLVRDATANDSRTPSIDTLDDLAQRSYDSVDFFEIMDMLDKRLNDKGKYWRHVAKSLTVLDYLVRFGSENCVLWCRENFYVIKTLREFRHENESGFDEGQIIRVKAKELVSLLNDEERLREERSMNTRNRRANRAARPRPRRQRTRSNPHDSSPSYQDDLEKALEESRITAQEDEQRRRELAQYDDEDPDFQAALQLSKEEEELKQLQELQRLQKQQQSLSQFQAPLQQQQPQQQPAYYDIFGNPISQDEYLQYQYQQDQEQAMAQQRWLDQQQEQQQLAEQQYFQQQQQAAAAASALQQQQTAANMQQQQQQPADFQQPLPTGSNNPFSMDNLERQKQEQQHAQLQRQQEEARQQQEQLKLQQLQRQQQEEAQLHQKRQEEAQLQQQQAQLLQQQAQFQQQQPLKQTRTGNQSISDKYSDLNTLLATGTGIDTFGNTGEARIPAQHTKTGTFINSQGTGYKQVTNEPKNNPFLSNQYTGLPSTNIVPTQTGYGFGNQPQSPPTNSPQQNPTGISYSQPQQQQQPQQQPQYMQNFQQQQPQYAQNFQQQPQYTQNYQQQPQYIQPHQQQQQQQQQQQQQQGYTPDQGVSLIDL", "values": [{"measurement": "medrep (log2 median colony size normalized to plate background, PCA score)", "setting": "[1]; [3]", "value": 2.135}, {"measurement": "Score", "setting": "[1]; bait SLA1-2, label = prey", "value": 1}, {"measurement": "Ratio (SH3-deleted/WT medrep)", "setting": "[1]; bait SLA1-2, label = prey", "value": 0.1}, {"measurement": "medrep (log2 median colony size normalized to plate background, PCA score)", "setting": "[1]; [4]", "value": 2.135}, {"measurement": "Score", "setting": "[1]; bait SLA1-3, label = prey", "value": 0}, {"measurement": "medrep (log2 median colony size normalized to plate background, PCA score)", "setting": "[2]", "value": 2.696}]}
{"molecule": "YNL084C (protein, UniProt P39013 1-349, looked up) Actin cytoskeleton-regulatory …: MPKLEQFEIKKYWQIFSGLKPIENKVNHDQVLPILYNSKLDSSVLNKIWFLADIDDDDNLDFEEFVICMRLIFDMVNKNISSVPDELPDWLIPGSKVNLIKERKKRKQIENADLPPKKEIKVDWYMSPDDLNQYEKIYNSCAKLTDGTITFNELSTKLSTKFFNISKTDLNKVWSLINPQNLPSIDRDPTFYFIHCLRQRNDLGAEIPASLPNSLAEVCNKKQLSYDLRSSQPPTKRKEEANEVDNLRDNGQNSSSDSSGSNVLSNEDSIKQKYASLTDDQVANMREQLEGLLNYKKSEKTQGGSKLSKRINIRSITDDLDNIEQQVEVLENYLNNKRHELQALQAEIN", "values": [{"measurement": "medrep (log2 median colony size normalized to plate background, PCA score)", "setting": "[1]; [4]", "value": 4.605}, {"measurement": "Score", "setting": "[1]; bait SLA1-3, label = prey", "value": 0}, {"measurement": "medrep (log2 median colony size normalized to plate background, PCA score)", "setting": "[2]", "value": 4.13}]}
